Where a chain is given by its changes, count along the chain named. Where “and” joins values, the source holds several entries; their conditions need not be identical. Equal values may be shown once. Values belong to the binder of their own block, whether it stands above or below them.
Key:
D249A = assay: SPR, Fab over captured MICA*008.mIgG2a Ala variant; KD relative to wild type
H290A = assay: as above
S245A = assay: as above
V244A = assay: as above
R279A = assay: as above
G275A = assay: as above
E285A = assay: as above
I236A = assay: as above
R274A = assay: as above
H248A = assay: as above
R240A = assay: as above
T292A = assay: as above
Q241A = assay: as above
Y283A = assay: as above
the other Glyco variants = assay: ELISA, coated variant

Sequence of V244A (chain, as listed by the source V244A V244A limits assumed): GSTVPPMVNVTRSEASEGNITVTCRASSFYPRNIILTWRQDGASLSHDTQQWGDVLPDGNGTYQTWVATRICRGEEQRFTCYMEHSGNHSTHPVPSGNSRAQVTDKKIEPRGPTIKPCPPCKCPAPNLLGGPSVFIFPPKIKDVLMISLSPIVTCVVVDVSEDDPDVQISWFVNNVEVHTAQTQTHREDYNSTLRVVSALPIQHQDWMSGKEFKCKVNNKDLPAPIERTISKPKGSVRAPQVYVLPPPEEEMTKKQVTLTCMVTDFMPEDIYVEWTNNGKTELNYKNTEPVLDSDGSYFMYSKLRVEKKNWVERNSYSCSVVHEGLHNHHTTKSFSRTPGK
Sequence of G275A (chain, as listed by the source G275A G275A limits assumed): as the sequence (chain, as listed by the source V244A V244A limits assumed) above, with A43V, G74A counted along it
Sequence of Y283A (chain, as listed by the source Y283A Y283A limits assumed): as the sequence (chain, as listed by the source V244A V244A limits assumed) above, with A43V, Y82A counted along it
Sequence of R240A (chain, as listed by the source R240A R240A limits assumed): as the sequence (chain, as listed by the source V244A V244A limits assumed) above, with R39A, A43V counted along it
Sequence of E285A (chain, as listed by the source E285A E285A limits assumed): as the sequence (chain, as listed by the source V244A V244A limits assumed) above, with A43V, E84A counted along it
Sequence of Q241A (chain, as listed by the source Q241A Q241A limits assumed): as the sequence (chain, as listed by the source V244A V244A limits assumed) above, with Q40A, A43V counted along it
Sequence of I236A (chain, as listed by the source I236A I236A limits assumed): as the sequence (chain, as listed by the source V244A V244A limits assumed) above, with I35A, A43V counted along it
Sequence of R274A (chain, as listed by the source R274A R274A limits assumed): as the sequence (chain, as listed by the source V244A V244A limits assumed) above, with A43V, R73A counted along it
Sequence of S245A (chain, as listed by the source S245A S245A limits assumed): as the sequence (chain, as listed by the source V244A V244A limits assumed) above, with A43V, S44A counted along it
Sequence of T292A (chain, as listed by the source T292A T292A limits assumed): as the sequence (chain, as listed by the source V244A V244A limits assumed) above, with A43V, T91A counted along it
Sequence of R279A (chain, as listed by the source R279A R279A limits assumed): as the sequence (chain, as listed by the source V244A V244A limits assumed) above, with A43V, R78A counted along it
Sequence of H248A (chain, as listed by the source H248A H248A limits assumed): as the sequence (chain, as listed by the source V244A V244A limits assumed) above, with A43V, H47A counted along it
Sequence of D249A (chain, as listed by the source D249A D249A limits assumed): as the sequence (chain, as listed by the source V244A V244A limits assumed) above, with A43V, D48A counted along it
Sequence of H290A (chain, as listed by the source H290A H290A limits assumed): as the sequence (chain, as listed by the source V244A V244A limits assumed) above, with A43V, H89A counted along it

fold-decrease in affinity (D249A): 3.5
fold-decrease in affinity (H290A): 14400
fold-decrease in affinity (S245A): 13
fold-decrease in affinity (V244A): 10400
fold-decrease in affinity (R279A): 3950
fold-decrease in affinity (G275A): 0.03
fold-decrease in affinity (E285A): 1060
fold-decrease in affinity (I236A): 0.01
fold-decrease in affinity (R274A): 3
fold-decrease in affinity (H248A): 16
fold-decrease in affinity (R240A): 15500
fold-decrease in affinity (T292A): 3040
fold-decrease in affinity (Q241A): 9830
fold-decrease in affinity (Y283A): 6260
B1: 1D5 Fab (Fab, V domains shown, not shown: a dimerising Fc or GST)
VH: EIQLQQSGPELVKPGASVKVSCKASGYAFTSQNIYWVKQSHGKSLEWIGYIEPYNVVPMYNPKFKGKATLTVDKSSSSAYIHLNSLTSEDSAIYYCARSGSSNFDYWGQGTTLTVSS
VL: EIILTQSPTTMAASPGEKITITCSASSSISSHYLHWYQQKSGFSPKLLIYRTSNLASGVPARFSGSGSGTSYSLTIGTMEAEDVATYYCQQGSSLPLTFGAGTKVEIK

fold-decrease in affinity (V244A): 8.6
fold-decrease in affinity (G275A): 3.1
fold-decrease in affinity (R240A): 1500
fold-decrease in affinity (Y283A): 3.2
B2: 7D4.6 Fab (Fab, V domains shown)
VH: DVQLQESGPGLVKPSQSLSLTCTVTGYSITSDYAWNWIRQFPRNKLEWMGYINYSGTTNYNPSLKSRISITRDTSKNQFFLQLISVTTEDTATYYCSYYRYDGAWFPYWGQGTLVTVSA
VL: DIQMTQSPASLSASVGETVTITCRASGNIHNYLAWYQQKQGKSPQLLVYNAIMLADGVPSRFSASGSGTQYSLKINSLQPEDFGSYYCQHFWSFPLTFGAGTKVEIK

fold-decrease in affinity (V244A): 5.5
B3: 6F8.7 Fab (Fab, V domains shown)
VH: DVQLQGSGPGLVKPSQSLSLTCSVTGYSITNDYYWNWIRQFPGNKLEWMGFISFGGSNNYNPSLKNRISITRDTSKNQFFLKLSSVTTEDTATYYCARYDGRGAWFAYWAQGTLVTVSA
VL: B2 VL with N50D, M53T, A64G, S85N

Elisa value (the other Glyco variants): 3.8 and 3.9
B4: 13A9 (antibody, V domains shown)
VH: QVQLQQSGAELVRPGTSVKVSCKASGYAFTNYLIEWVKQRPGQGLEWIGAINPGSGATNYNEKFKDKARLTADKSSNTAYLQFSSLTSDDSAVYFCARFLGNYFDNWGQGATLTVSS
VL: DIQMTQSPASLSASVGETVTITCRASGNIHSYLAWYQQKQGKSPQLLVYYAETLADGVPSRFSGRGSGTQYSLKINSLQPEDFGSYFCQQFWTTPYTFGGGTKVEIK

Reference: US20200055939A1
